Measured values reported in PMC5256923, “RNA and DNA Targeting by a Reconstituted Thermus thermophilus Type III-A CRISPR-Cas System” (PLoS ONE, 2017).
Several values for one entry are separate records, joined by “and”; a condition that tells them apart may be missing. Equal entries are not always repeated.

T1: T. thermophilus Csm5, His10 tag cleaved off with HRV 3C protease (T. thermophilus, UniProt Q53W18 1-397)
T1 construct: Csm5 of Thermus thermophilus (locus TTHB151), codon-optimized gene; Same construct as m1 after 3C cleavage; also called TTHB151; source: E. coli BL21(λDE3), co-expressed with the other Csm subunits, Cas6A and crRNA 4.5; co-purified in the TthCsm complex (Ni-NTA, 3C cleavage, Ni-NTA, Superose 6)
T1 sequence (looked up): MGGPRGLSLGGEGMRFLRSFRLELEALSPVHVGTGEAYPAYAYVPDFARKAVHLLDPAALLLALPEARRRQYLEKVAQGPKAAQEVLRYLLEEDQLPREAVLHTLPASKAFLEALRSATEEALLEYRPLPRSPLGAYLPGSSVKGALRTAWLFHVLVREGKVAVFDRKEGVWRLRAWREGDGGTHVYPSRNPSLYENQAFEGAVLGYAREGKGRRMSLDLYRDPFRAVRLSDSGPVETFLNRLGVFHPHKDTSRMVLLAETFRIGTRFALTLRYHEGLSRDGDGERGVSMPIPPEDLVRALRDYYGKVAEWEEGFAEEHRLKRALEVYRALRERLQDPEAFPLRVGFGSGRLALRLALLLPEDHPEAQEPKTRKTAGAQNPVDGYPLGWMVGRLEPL

B1: T. thermophilus Cas10/Csm1 (natural protein, UniProt Q53W19 1-805, looked up)
chain: MLGDGLSVALAGLLHDVGKLYSRARWGERDDQVPDRTHTAYTAHFVREHAGLFRGAGLDPDWLARTASRHHEGWRDRPQYRPETPEEWCVALADTYASKEREEGEGGGSPPEVPLSPPFRRLLLGGEEGREGGYSPVGAGGRVGLEAGGLYPEERPNVSKDVYKRLLERLEGRLEEMARFSLGKEALVLNLALALQETLSLVPSDTQSEPDVSLYDHLRLTAAIAHALWLFHGGSPSAQNLRQDGEKFLLVVGDMGGIQGHIYRIAGAEAGVGGIAKRLRARSLEVSLAAEAMALGLLWRLGLTSLNRILGAGGKFYLLLPNTEEARAALEGTREAWGRWALKRGGSLVPHLAWVAFRGQDFRDFAALLKRLHEALAREKLRPFAFLASTGGVLGAPLRPCAACGLEPARRDEPGSLCPDCEREAALGARLPRSDRVGFFLEEAPRPYLDFPGLKVGLGGPLEGAFHLFRARLDFAPWPDPSEAKPLLGHLPRVEHALKAKGWSLEAYRAWAEEEGLLEDEEPHPEKVLTFAELAALSEGAPYLGALMLDADRMGEAFATGFRREGRDLATPSRLAALSRTLEVFFTTEVLTLLEEPRRYRERLGWDDLEAQRKEARYPLLYSVYSGGDDLFLLGPWDALLDFALDLERLYRLFTRHPRLTLSGGFLLVPPSLPVPELARLLGEAEKRAKAEGRERLFLFGQAVPWETLRGLRAWAEGLRQDLRAERVSRAQVYRWLLLWRRFSPLEDPGERMRYKPLLAYALRRVRERDEEAWKRYLKLLDHQDPAWAYLPVWVQWALYRERRV
notes: Cas10/Csm1 of Thermus thermophilus (locus TTHB147), codon-optimized gene; also called TTHB147; source: E. coli BL21(λDE3), co-expressed with the other Csm subunits, Cas6A and crRNA 4.5; in lysate, and co-purified in the TthCsm complex (Ni-NTA, Superose 6)

Legend:
[1] = biological target: T. thermophilus Csm5, His10 tag cleaved off with HRV 3C protease (T. thermophilus) (UniProt Q53W18); assay: native MS; native nanoESI-MS, positive ion mode, about 5 uM of the co-expressed and co-purified TthCsm complex (with crRNA) exchanged into 1 M ammonium acetate, 5% glycerol
[2] = biological target: T1, T. thermophilus Csm5, His10 tag cleaved …; assay: as above; conditions: both partners purified

Row | Molecule | stoichiometry N [1] | stoichiometry N [2]
1 | T. thermophilus Csm3 (natural protein) | 6 and 4 | –
2 | T. thermophilus Csm4 (from UniProt Q53W19 1-805) (natural protein) | 1 | –
3 | T. thermophilus Csm2 (natural protein) | 3 and 4 | –
4 | B1 | – | 1
